Experimental data reported in PMC6248175.

Biological target: C3b (UniProt P01024)
Experiment: microplate/western blot assay; protocol 1, formation step: C3b-coated wells; FB 1,000 ng/ml, FD 10 ng/ml, 10 mM MgCl2, 100 ug/ml control or patients' IgGs, 12 min at 25 C, without or with FH 2,640 ng/ml during formation; density of the Bb band with FH over that without FH

Substance “factor H (from UniProt P08603 19-1231) (natural protein)” has a ratio Bb band + FH / Bb band without FH (with FH-CSA+ C3NeF IgGs of patients) of 0.58, a ratio Bb band + FH / Bb band without FH (with FH-CSA- C3NeF IgGs of patients) of 0.32 and a ratio Bb band + FH / Bb band without FH (with control IgGs) of 0.32.
